Results on one protein are retold here after publication PMC3844954.

Data set [1] can be described thus: western blot of acetone-precipitated HEK293 medium. The settings on record: glycan lost; control: wild-type IFNλ4-FLAG.
The nature of data set [2]: IFNλ activity of supernatant, Mx1-luciferase reporter, HEK293+IFNλR1. The settings on record: glycan lost; control: wild-type IFNλ4-FLAG. A general note: In a reporter assay the amount or activity of a reporter protein is the signal.

B1: IFNλ4 (interferon lambda 4): N61D (protein)
parent chain: MRPSVWAAVAAGLWVLCTVIAAAPRRCLLSHYRSLEPRTLAAAKALRDRYEEEALSWGQRNCSFRPRRDPPRPSSCARLRHVARGIADAQAVLSGLHRSELLPGAGPILELLAAAGRDVAACLELARPGSSRKVPGAQKRRHKPRRADSPRCRKASVVFNLLRLLTWELRLAAHSGPCL
On to B1, for which the expression_or_secretion result in data set [1] and in data set [2] was “decreases” in each case.
